In IntAct's records for PubMed 16115628:

B1: 1-phosphatidylinositol 4,5-bisphosphate phosphodiesterase delta-1 (Homo sapiens), P51178 (parent)
chain: MDSGRDFLTLHGLQDDEDLQALLKGSQLLKVKSSSWRRERFYKLQEDCKTIWQESRKVMRTPESQLFSIEDIQEVRMGHRTEGLEKFARDVPEDRCFSIVFKDQRNTLDLIAPSPADAQHWVLGLHKIIHHSGSMDQRQKLQHWIHSCLRKADKNKDNKMSFKELQNFLKELNIQVDDSYARKIFRECDHSQTDSLEDEEIEAFYKMLTQRVEIDRTFAEAAGSGETLSVDQLVTFLQHQQREEAAGPALALSLIERYEPSETAKAQRQMTKDGFLMYLLSADGSAFSLAHRRVYQDMGQPLSHYLVSSSHNTYLLEDQLAGPSSTEAYIRALCKGCRCLELDCWDGPNQEPIIYHGYTFTSKILFCDVLRAIRDYAFKASPYPVILSLENHCTLEQQRVMARHLHAILGPMLLNRPLDGVTNSLPSPEQLKGKILLKGKKLGGLLPPGGEGGPEATVVSDEDEAAEMEDEAVRSRVQHKPKEDKLRLAQELSDMVIYCKSVHFGGFSSPGTPGQAFYEMASFSENRALRLLQESGNGFVRHNVGHLSRIYPAGWRTDSSNYSPVEMWNGGCQIVALNFQTPGPEMDVYQGRFQDNGACGYVLKPAFLRDPNGTFNPRALAQGPWWARKRLNIRVISGQQLPKVNKNKNSIVDPKVTVEIHGVSRDVASRQTAVITNNGFNPWWDTEFAFEVVVPDLALIRFLVEDYDASSKNDFIGQSTIPLNSLKQGYRHVHLMSKNGDQHPSATLFVKISLQD

Variants of: B1
Conditions: with imb1_human KPNB1, Q14974
imb1_human KPNB1, Q14974, sequence (Q14974 whole entry): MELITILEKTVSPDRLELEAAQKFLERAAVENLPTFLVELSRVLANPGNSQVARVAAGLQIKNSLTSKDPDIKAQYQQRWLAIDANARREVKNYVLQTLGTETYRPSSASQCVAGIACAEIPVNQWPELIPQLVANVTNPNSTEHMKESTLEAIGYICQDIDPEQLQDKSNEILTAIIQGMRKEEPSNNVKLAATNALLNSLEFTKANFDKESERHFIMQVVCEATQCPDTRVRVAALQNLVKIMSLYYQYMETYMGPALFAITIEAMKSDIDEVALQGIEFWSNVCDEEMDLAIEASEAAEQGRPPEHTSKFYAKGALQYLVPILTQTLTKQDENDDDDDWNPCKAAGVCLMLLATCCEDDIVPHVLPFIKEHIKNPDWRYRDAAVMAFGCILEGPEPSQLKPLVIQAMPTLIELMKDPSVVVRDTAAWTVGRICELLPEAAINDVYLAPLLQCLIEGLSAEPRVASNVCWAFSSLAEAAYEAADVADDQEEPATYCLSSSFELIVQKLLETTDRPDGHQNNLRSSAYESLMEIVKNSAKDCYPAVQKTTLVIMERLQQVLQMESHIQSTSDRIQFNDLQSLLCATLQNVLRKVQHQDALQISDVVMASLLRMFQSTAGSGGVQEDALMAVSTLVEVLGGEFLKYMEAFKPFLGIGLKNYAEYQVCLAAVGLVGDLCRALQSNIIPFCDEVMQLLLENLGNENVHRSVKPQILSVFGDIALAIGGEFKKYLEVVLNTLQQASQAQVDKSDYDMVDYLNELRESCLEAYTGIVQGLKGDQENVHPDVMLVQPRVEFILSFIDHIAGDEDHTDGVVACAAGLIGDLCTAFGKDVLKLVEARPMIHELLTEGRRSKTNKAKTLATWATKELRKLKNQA

Variant	effect of a mutation on the interaction
E341A	decreasing interaction
